Experimental data reported in the RNAGym collection of RNA variant scans (doi:10.7554/elife.80360).

B1: Hammerhead Ribozyme (parent)
chain: ACCGGAUGUGCUUUCCGGUCUGAUGAGUCCGUGAGGACGAAACAG

Variants of: B1
Assay: self-cleavage, relative activity (ratio to wild type); higher = more cleavage; co-transcriptional

Variant	self-cleavage
C3A C20A	0.348
U19C G25A	0.312
U19C U28A	0.524
U19A C38U	0.358
U14G A34C	0.875
A6G U21A	0.393
C11G A37G	1.02
U12G G39A	0.4
C16U G31C	0.844
G35A A40G	0.37
A40C A44U	0.347
G8A C38G	0.708
C29G A40G	0.238
C29G A40U	0.325
U9A C11G	1.57
A23U A37G	0.422
A1U A23C	0.385
U19A G22U	0.3
G10U A41C	0.422
U32A A37C	0.936
C2G G17A	0.377
A26U C29A	0.311
A26U G35C	0.377
U19C A42U	0.212

Variant	self-cleavage
C11A G18C	0.586
G5C G39A	0.252
U21G A23G	0.387
A26G A37G	0.424
U21G G31A	0.797
C16U C20U	0.651
U14G G18A	0.54
C16G A34G	0.655
A6C A40U	0.37
U9A U19C	0.535
C3U G39U	0.343
G27C A42U	0.313
A1C U13A	0.557
C16A G39A	0.356
C16A G39C	0.337
C16G A37U	0.606
U9G U28A	0.833
G25C G27U	0.294
U7A G31U	1.26
G10C C30U	1.28
G10C C30A	0.989
C3G G10C	0.52
U21G C38U	0.374
U21G C38G	0.303

Variant	self-cleavage
U28G	0.873
C29A U32G	0.504
A6U G39C	0.294
A6G G31C	0.979
G5C A26G	0.267
U14A G45U	0.715
U12C A44U	0.725
A1U A26C	0.402
G33C A40G	0.339
G33C A40U	0.409
C20A C43U	0.342
A1U C11U	0.423
C20A A34U	0.413
U7C G17U	0.625
U14C A34U	0.67
U24A A37U	0.771
U28G G35U	0.58
G35A A41G	0.328
A1G G25A	0.43
U12A G35A	0.724
C2A C3U	0.312
C2A C3G	0.277
C16G G39C	0.368
U12A U19G	0.431

Variant	self-cleavage
C11U A42G	0.304
A6C G39A	0.311
U28G C38A	0.64
C3G U9A	0.411
G31A G36A	0.603
C11G U14G	0.74
A1G U21A	0.968
G27A U32C	0.803
C2U A41G	0.389
A6C C30U	0.51
G35U C43G	0.34
U14A A41G	0.28
U13A G33C	1.25
U28C G39C	0.371
C3U A40U	0.36
C3U A40C	0.469
U28G C29G	0.547
G27U G35U	0.345
G8U C29A	0.488
C20U A23G	0.356
G8C G45A	0.536
C11U A23C	0.277
C11U A23G	0.39
G5C C15G	1.13

Variant	self-cleavage
G17A C38G	0.478
G25U G31A	0.338
G39U C43U	0.371
A1C A34U	0.384
U12G A44U	0.565
A41C A44C	0.436
U24C C43G	0.36
G4C U13G	0.962
G17C A44U	0.414
A6C U24A	0.707
A44U	0.756
C3U G17A	1.03
A37G C38U	0.534
C38U A42G	0.34
G5A A34C	1.1
G8U U28A	0.966
C11U A41G	0.386
U19C G35U	0.465
U32C A34U	0.738
G4U U19A	0.304
G10C U19A	0.317
A6C U9A	0.479
G17U C38U	0.758
C3U C43U	0.492

Variant	self-cleavage
U13G C29U	0.82
U12A G39C	0.338
U21C U24G	1.07
C11A A26C	0.725
A26U G36U	0.446
G4A U13A	1.01
C2A G39U	0.327
G33U G36A	0.765
G31C G45A	0.438
G4U U32G	0.316
G17C G18U	0.455
A1G G22C	0.376
G5C U21A	0.307
U13G U19C	0.767
G8C C30A	0.708
G33C C43G	0.28
U7A G27C	0.449
C15U A41C	0.368
G18U G31C	0.685
G31A A42G	0.298
G5U A34U	0.83
G17U U32C	0.633
G17C C43G	0.311
U9C G39A	0.313

Variant	self-cleavage
C2A A42C	0.355
C15A A40C	0.361
C2U U9A	1.24
C2U U9G	0.659
C2A G27A	0.438
A6C A26G	0.147
G8C G33C	0.867
G4U G31A	0.612
C15A G45A	0.498
C15G G33U	1
U13C G18U	0.933
A42C A44G	1.06
A1U U7G	0.603
C2U A34G	0.841
U7G G17U	0.548
G10U C38A	0.645
U12G U32C	0.921
G33U A44C	0.596
G18U A42U	0.339
G8A C11A	1.28
G18U A44G	0.942
C20G U32A	0.305
U7A A23G	0.308
